Blank lines part the entries; values can stand above or below the binder they belong to.
Experiments:
[1] = target: T1, extracellular domain of CD33^FL with a 6-histidine-avidin tag (hsCD33-His-Avi) (human, UniProt P20138 18-256); assay: Biacore SPR, purified antibody and corresponding soluble ectodomain
T1 construct: The Biacore text says only 'the corresponding soluble ectodomains'; it includes the native signal peptide and the His-Avi tag, and no limits are stated on it; also called soluble CD33^FL ectodomain; MDT000235
Description: (§1) FIGS. 4A-4C illustrate the expression (FIGS. 4A, 4B) and characterization of two CD33^FL specific (8F5 and 5D12) and one CD33^ΔE2 specific (12B12) antibodies. Affinities for these antibodies (shown in FIG. 4C) were characterized by Biacore (Biacore, A&G Pharmaceutical, Inc., Columbia, MD) using purified antibodies and the corresponding soluble ectodomains.

[2] = target: T2, extracellular domain of CD33^ΔE2 with a 6-histidine-avidin tag (hsCD33_ΔE2-His-Avi) (human); assay: as above
T2 construct: The Biacore text says only 'the corresponding soluble ectodomains'; also called soluble CD33^ΔE2 ectodomain; MDT000239
T2 chain: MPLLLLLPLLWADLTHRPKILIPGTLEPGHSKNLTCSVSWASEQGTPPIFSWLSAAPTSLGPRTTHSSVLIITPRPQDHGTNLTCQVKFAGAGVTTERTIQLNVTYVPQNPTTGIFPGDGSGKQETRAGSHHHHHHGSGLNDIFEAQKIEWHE
Description: as §1

[3] = target: T3, ΔE2 version of human CD33 (CD33^ΔE2) expressed on cells (human, UniProt P20138 1-364); assay: flow cytometry on engineered REH cells
T3 construct: Expressed on engineered REH sublines; also called CD33ΔE2 isoform

[4] = target: T4, human full-length CD33 (CD33^FL) expressed on cells (human, UniProt P20138 18-364); assay: flow cytometry on REH subline expressing CD33^FL
T4 construct: Expressed on engineered REH (or RS4;11) sublines

[5] = target: T3, ΔE2 version of human CD33 (CD33^ΔE2) …; assay: flow cytometry on REH subline expressing CD33^ΔE2
[6] = target: T3, ΔE2 version of human CD33 (CD33^ΔE2) …; assay: flow cytometry on REH cells expressing CD33^ΔE2
Description: FIG. 6 illustrates flow cytometry binding assay characterization of CD33^ΔE2 -specific CD33 antibodies. […] Antibodies specific for CD33^ΔE2 have not previously been described reliably in the literature. The herein-described CD33^ΔE2 specific antibodies will be useful, including for determining expression profiles of this isoform across healthy and diseased individuals. REH=human CD33^neg lymphoid cells.

[7] = target: T4, human full-length CD33 (CD33^FL) …; assay: flow cytometry on REH cells expressing CD33^FL
[8] = target: T4, human full-length CD33 (CD33^FL) …; assay: flow cytometry on REH cells, legend of FIG. 7
[9] = target: T1, extracellular domain of CD33^FL with a …; assay: Biacore SPR, value quoted from FIG. 4C
Description: as §1

T4 sequence (P20138 18-364 limits assumed): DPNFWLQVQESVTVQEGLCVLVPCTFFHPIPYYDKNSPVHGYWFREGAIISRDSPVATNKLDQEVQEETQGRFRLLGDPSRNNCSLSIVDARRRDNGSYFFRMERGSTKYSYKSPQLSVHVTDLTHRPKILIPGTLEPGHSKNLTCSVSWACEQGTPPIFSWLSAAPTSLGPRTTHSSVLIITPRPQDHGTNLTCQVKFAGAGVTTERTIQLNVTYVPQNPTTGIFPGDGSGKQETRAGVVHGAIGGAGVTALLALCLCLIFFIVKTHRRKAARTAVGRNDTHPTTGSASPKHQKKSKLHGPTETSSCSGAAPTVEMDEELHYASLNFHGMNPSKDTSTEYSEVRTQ

Kd [1]: 8 nM
B1: anti-CD33 antibody 8F5 (antibody, mouse IgG2a, kappa, V domains shown)
VH: EVKLVESGGGLVQPGGSLKLSCAASGFTFSDFYMYWVRQTPEKRLEWVAFISNAGVTTYYPDTVEGRFTISRDNAKNTLYLQMSRLMSEDTAMYYCTKSDYDGAWFPYWGQGTLVTVSA
VL: DIVMSQSPSSLPVSVGEKVTLSCKSSQSLLYSRNQYNFLAWYQQRPGQSPKLLIYWASTRESGVPDRFTGSGSGTDFTLTISSVKAEDLAVYYCQQYYSYPYTFGGGTKLEIKR
notes: Mouse IgG2a

binding result [6]: binds
B7: anti-CD33 antibody 11D11 (antibody, V domains shown)
VH: EVNLVESGGGLVQSGRSLRLSCATSGFTFSDFYMEWVRQAPGKGLEWIAASRNKANDYTTEYKASVKGRFIVSRDTSQSILYLQMNALRAEDTAIYYCTRDTGPMDYWGQGTSVTVSS
VL: DIQMTQTTSSLSASLGDRVTISCRASQDISNYLNWYQQKPDGTVKLLIYYTSRLHSGVPSRFSGSGSGTDYSLTISNLEQEDIATYFCQQGSTLPPTFGGGTKLEIKR
notes: Mouse IgG1

binding result [8]: binds | binding result [6]: binds
B8: anti-CD33 antibody 5E10.7 (antibody, V domains shown)
VH: QVQLQQPGAEFVKPGASVKLSCKASGYTFTSYWMQWVKQRPGQGLEWIGEIDSSDSYTNYNQKFKGMATLTVDRSSSTAYMQLSSLTSEDSAVYYCARSRPYDWFPYWGQGTLVTVST
VL: DIKMTQSPSSIYASLGERVTITCKASQDIKSYLSWYQQKPRKSPKTLIYYATTLADGVPSRFSGSGSGQDFSLTISSLESDDTATYYCLHHSESPWTFGGGTKLEIKR
notes: Mouse IgG1

Second part, the binder before the results:

B2: anti-CD33 antibody 12B12 (antibody, V domains shown)
VH: EVQLQQSGTVLARPGASVKMSCKASGYTFTTYWMHWIKQSPGQGLEWIGAIYPGNSDTSYNQKFKGKAKLTAVTSASTAYMELSSLTNEDSAVYYCEIYDGYHFIYWGQGTTLTVSS
VL: DIVMTQAAFSNPVTLGTSASISCRSSQSLLHSNGITYLYWYLQKPGQSPQLLIYQMSNLASGVPDRFSSSGSGTDFTLRISRVEAEDVGVYYCAQNLELPPTFGGGTKLEIKR
notes: Mouse IgG2b
Kd [2]: 8 nM

B3: anti-CD33 antibody 11D5 (antibody, V domains shown)
VH: EVQFQQSETVLARPGTSVKLSCKASGYTFTSYWMHWLKQRPGQGLEWIGAIYCGNSDTSYNQKFKGKAKLTAVTSATTAYMELSSLTNEDSAVYYCKIYDGYHFDYWGQGTTLTVSS
VL: DIVMTQAAFSNPVTLGTSASISCRSNKSLLHSNGITYLYWYLQKPGQSPQLLIYQMSNLASGVPDRFSSSGSGTDFTLRISRVEAEDVGVYYCAQNLELPPTFGGGTKLEIKR
notes: Mouse IgG1
binding result [3]: binds

B4: anti-CD33 antibody 2D5 (antibody, V domains shown)
VH: QVQLQQSGAELVRPGASVTLSCKASGYTFTDYDMHWVKQTPVHGLEWIGAIDPETGGTAYNQNFKGKAILTVDKSSRIAYMELRSLTSEDSAVFYCTSDYDYFGVWGTGTTVTVSS
VL: DIVMTQSQKFMSTSVGDRVSVTCKASQNVGTNVVWYHKKPGQSPKGLIYSASDRYSGVPDRFTGSGSGTDFTLTINNVQSEDLAEYFCQQYNIYPYTFGGGTKLEIKR
notes: the antibody was raised in mice
binding result [4]: binds | binding result [5]: binds

B5: anti-CD33 antibody 7E7 (antibody, V domains shown)
VH: QVTLKESGPGILQPSQTLSLTCSFSGFSLNSYGMGIGWIRQPSGKGLEWLAHIWWDDNKYYKPDLKSRLTVSKDTSKNQVFLKIANVDTTDTATYFCARDGGYSLFAYWGQGTLVTVSV
VL: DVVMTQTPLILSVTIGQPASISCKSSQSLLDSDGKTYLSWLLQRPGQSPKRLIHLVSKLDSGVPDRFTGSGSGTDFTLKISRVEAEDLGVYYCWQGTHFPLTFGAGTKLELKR
notes: Mouse IgG1
binding result [6]: binds | binding result [7]: no binding

B6: anti-CD33 antibody 1H7 (antibody, V domains shown)
VH: QVQLQQSGAELVKPGASVKISCKASGYAFSNYWMNWVKQRPGKGLEWIGQINPGDGDTNYNGKFKGKATLTADKSSSTAYMQLSSLTSEDSAVYFCAREDRDYFDYWGQGTTLTVSS
VL: DIQMTQTTSSLSASLGDRVTISCRASQDINYYLNWYQQKPDGTVKLLIYYSSRLHSGVPSRFSGSGSGTDFSLTISNLEQEDIATYFCQQDDALPYTFGGGTKLEIKR
notes: Raised in mice; The entries include a secretion leader; also called CD33PAN antibody
binding result [6]: binds | binding result [7]: binds

B9: anti-CD33 antibody 5D12 (antibody, V domains shown)
VH: QVQLQQSGAEVVKPGASVKISCRASGYAFSNYWMNWVKQRPGKGLEWIGQIYPGNFNTDYNGQFKGKATLTVDKSSNTAYMQLSSLTSEDSAVYFCARFFDFGAYFTLDYWGQGTSVTVSS
VL: DIKMTQSPSSIYASLGERVTINCKASQDIKSYLSWYQQKPWKSPKTLIYYATTLADGVPSRFSGSGSGQDYSLTISSLESDDTATYYCLHHGESPWTFGEGTKLEIKR
notes: Mouse IgG2a
Kd [1]: 0.112 nM | Kd [9]: 0.122 nM

— patent US20250034250A1 (published 2025)
